In patent US20220054955A1:

Biological target: GST
Experiment: photo-crosslinking of 7 mg/ml GST with 1 mM aziethyl glutathione (337 nm, 30 minutes), whole-protein LCMS

aziethyl glutathione
percent of GST molecules covalently crosslinked: 40%
